Here are results for one substance from patent US20230375528A1, “SCREENING METHOD FOR THE IDENTIFICATION OF NOVEL THERAPEUTIC COMPOUNDS” (European Molecular Biology Laboratory, priority 2020, published 2023).

One data set concerns the target T1, ENO1down (Homo sapiens, UniProt P06733, K343A).
T1 construct: made in house
As to the kind of experiment: competitive EMSA with ENO1down (K343A) mutant. The format is binding. As for the experimental part: Enzymatic activity assay of recombinant human ENO1 with increasing enzyme concentrations exposed to different control and target RNAs (constant conc. 100 nM). b. Measurement of recombinant ENO1wt activity with increasing concentrations of control and target PABPC1 RNA (n=3). The standard deviation is given and the statistically significant differences were detected using two-way ANOVA and Sidak-correction for multiple comparison testing. c. Inhibition constants (Ki) for target and control RNAs for the binding to ENO1down determined by competitive EMSA (n=3). The Ki was calculated using a non-linear fitting with least squares regression. […] Quantification of replicates for the experimental setup in e, including the inhibitor constants (n=3). The Ki was calculated using a non-linear fitting with least squares regression.
Quantification of competition EMSA experiments using PABPC1 target RNA as a probe and unlabelled PABPC1 control or target RNA competing for the binding to ENO1down (n=3). b. Quantification of competition EMSA experiments of ENO1down using FTH1 target RNA as a probe and unlabelled control or target FTH1 RNA as competitors (n=3). c. Quantification of competition EMSA experiments of ENO1down using PTP4A1 target RNA as a probe and unlabelled control or target (n=3). d. […]
On the technique in general: Mobility shift assays separate free from complexed probe on a gel.

A short description of data set [1]: basal enzymatic activity of recombinant ENO1 variants in vitro in the absence of RNA. The format is biochemical. The settings on record: recombinant protein in vitro. From the text: Comparison of ENO1's RNA-binding (PNK), and ENO1's enzymatic activity in HeLa cells, indirectly measured by the accumulation of lactate in the medium (n=3). b. Michaelis-Menten saturation curve of the basal enzymatic activity of recombinant ENO1wt, ENO1down and ENO1up in vitro in the absence of RNA using a non-linear curve fitting with least squares regression (n=3). c. Vmax and Km measurements for ENO1wt, ENO1down and ENO1up as determined from the Michaelis-Menten saturation curve in c. The asymmetrical confidence interval (CI) is given (n=3). d. Three distinct sets of target and control RNAs (5 μM) were nucleofected into mESCs. Upon nucleofection of the control or target RNAs, the lactate accumulation in the medium was measured after 30, 60 and 90 minutes and used to estimate the accumulation rate by calculating the slope. The R2 value was used as a quality control. […]
Relative enzymatic activity of ENO1wt, ENO1up, ENO1down and ENO1 as determined with recombinant proteins in vitro (n=3). b. […] Upon nucleofection of the control or target RNAs, the lactate accumulation in the medium was measured after 30, 60 and 90 minutes and used to estimate the accumulation rate (n=3). The standard deviation is given and the statistically significant differences were detected using two-way ANOVA and Sidak-corrected for multiple comparison testing. c. […]

For a further data set, the system named is mESCs. As to the kind of experiment: mESC differentiation after LIF withdrawal, qPCR of lineage markers. The format is cell-based, mouse. The settings on record: mESCs expressing ENO1 variant, seven days of LIF withdrawal, qPCR of marker genes. As for the experimental part:
Cells expressing Eomes-mCherry or Brachyury-BFP after seven days of LIF withdrawal were sorted for the respective fluorescent marker proteins, cultured for an additional five days and lactate accumulation in the culture medium was quantified (n=3). The standard deviation is given and the statistically significant differences were detected using the two-tailed Student's t-test. b. Cellular RNA-protein interactions were cross-linked with UV and a PNK assay was performed for cell populations described in a. A representative experiment is shown and was performed for a total of three times. Non-crosslinked (No CL), unsorted (us.) mESC were used as specificity controls. Immunoblots of ENO1 and actin are shown as controls. c. Cell lines were established for ENO1 knockout and constitutive transgenic expression of Flag-HA-tagged ENO1wt, ENO1up and ENO1down from the Rosa26 locus. RNA binding was measured for the three ENO1 variants by Flag immunoprecipitation and PNK assay after UV cross-linking in pluripotent mESCs. Three independent clones were used. The standard deviation is given and the statistically significant differences were detected using the two-tailed Student's t-test when comparing to ENO1wt. d. Measurement of the lactate accumulation in the culture medium for three independent clones of ENO1wt, ENO1up and ENO1down in pluripotent mESCs. The standard deviation is given and the statistically significant differences were detected using the two-tailed Student's t-test when comparing to ENO1wt. e.-g. Differentiation of mESCs and qPCRs of lineage marker for ENO1wt (e.), ENO1up (f.) and ENO1down (g.) after seven days of LIF withdrawal for three independent clones (from c.) in three experiments. The standard deviation is given and the statistically significant differences were detected using two-way ANOVA with Tukey-corrected multiple comparison testing when comparing to ENO1wt.
Independent clones of these cell lines were subjected to LIF withdrawal and analysed for differentiation to the different germ layers.
Background: Real-time PCR tracks product formation cycle by cycle.

The subject of the next data set is RNA. As to the kind of experiment: Flag immunoprecipitation and PNK assay of ENO1 variants in pluripotent mESCs. The format is cell-based, mouse. The conditions noted are these: murine ENO1 variants from Rosa26 locus, ENO1 knockout. As for the experimental part:
Cells expressing Eomes-mCherry or Brachyury-BFP after seven days of LIF withdrawal were sorted for the respective fluorescent marker proteins, cultured for an additional five days and lactate accumulation in the culture medium was quantified (n=3). The standard deviation is given and the statistically significant differences were detected using the two-tailed Student's t-test. b. Cellular RNA-protein interactions were cross-linked with UV and a PNK assay was performed for cell populations described in a. A representative experiment is shown and was performed for a total of three times. Non-crosslinked (No CL), unsorted (us.) mESC were used as specificity controls. Immunoblots of ENO1 and actin are shown as controls. c. […] RNA binding was measured for the three ENO1 variants by Flag immunoprecipitation and PNK assay after UV cross-linking in pluripotent mESCs. […] The standard deviation is given and the statistically significant differences were detected using the two-tailed Student's t-test when comparing to ENO1wt. d. […] The standard deviation is given and the statistically significant differences were detected using the two-tailed Student's t-test when comparing to ENO1wt. e.-g. […] The standard deviation is given and the statistically significant differences were detected using two-way ANOVA with Tukey-corrected multiple comparison testing when comparing to ENO1wt. […]

T1 sequence (P06733 whole entry K343A): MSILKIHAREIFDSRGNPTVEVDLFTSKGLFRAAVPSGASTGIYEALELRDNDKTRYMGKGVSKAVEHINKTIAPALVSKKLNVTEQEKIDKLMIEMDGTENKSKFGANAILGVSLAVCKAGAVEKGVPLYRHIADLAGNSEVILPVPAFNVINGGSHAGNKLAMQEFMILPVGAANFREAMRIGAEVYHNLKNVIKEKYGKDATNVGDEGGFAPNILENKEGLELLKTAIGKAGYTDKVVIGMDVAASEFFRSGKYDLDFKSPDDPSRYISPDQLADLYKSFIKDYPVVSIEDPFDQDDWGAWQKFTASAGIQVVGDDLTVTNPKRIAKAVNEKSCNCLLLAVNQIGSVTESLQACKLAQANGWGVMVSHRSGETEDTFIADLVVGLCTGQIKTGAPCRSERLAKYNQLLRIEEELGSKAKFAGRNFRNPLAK

“ENO1down: ENO1 mutant K343A with reduced RNA binding”: the “decreased RNA binding compared to ENO1wt” value with ENO1down is 5-10 fold. In data set [1], the enzymatic activity result was “as enzymatically active as the wild-type protein”. Also, the “differentiation to germ layers” value in the data set on mESCs was “increased differentiation towards the definitive endoderm”. Also, in the data set with RNA, the “RNA binding compared to ENO1wt” value is given as “decrease in RNA binding”.
